# Test results from patent publication US20260063625A1, “COMPOSITIONS FOR AND METHODS OF DETECTING FOOD TOXINS” (priority 2022, published 2026).
# Test: Fluorescence polarization (FP) binding to fluorescein labeled STX
# Details: […]G = RT ln (KdSxph mutant/KdSxph); T = 298K
# Protocol: […]; Measurements were performed at 25° C. on a Synergy H1 microplate reader (BioTek) using the polarization filter setting (excitation 485 nm, emission 528 nm). […]. The dissociation constants were calculated using GraphPad Prism by fitting fluorescence millipolarization (mP=P·10^−3, where P is polarization) as a function of Sxph concentration using the equation: P={(Pbound−Pfree) [Sxph]/(Kd+[Sxph])}+Pfree, where P is the polarization measured at a given Sxph concentration, Pfree is the […], and Pbound is the maximum polarization of Sxph bound by F-STX (Rossi and Taylor, Hansen et al.).
row,Molecule,[…]G (kcal mol^−1) relative to wild-type RcSxph [kJ/mol]
1,E540Q: RcSxph mutant E540Q (protein) MAPTFQTALFFTIISLSFAAPNAKQVRWCAISDLEQKKCNDLVGSCNVPDITLVCVLRSSTEDCMTAIKDGQADAMFLDSGEVYEASKDPYNLKPIIAEPYSSNRDLQKCLKERQQALAKKMIGHYIPQCDEKGNYQPQQCHGSTGHCWCVNAMGEKISGTNTPPGQTRATCERHELPKCLKERQVALGGDEKVLGRFVPQCDEKGNYEPQQFHGSTGYSWCVNAIGEEIAGTKTPPGKIPATCQKHDLVTTCHYAVAMVKKSSAFQFNQLKGKRSCHSGVSKTDGWKALVTVLVEKKLLSWDGPAKESIQRAMSKFFSVSCIPGATQTNLCKQCKGEEGKNCKNSHDEPYYGNYGAFRCLKEDMGDVAFLRSTALSDEHSEVYELLCPDNTRKPLNKYKECNLGTVPAGTVVTRKISDKTEDINNFLMEAQKRQCKLFSSAHGKDLMFDDSTLQLALLSSEVDAFLYLGVKLFHAMKALTGDAHLPSKNKVRWCTINKLEKMKCDDWSAVSGGAIACTEASCPKGCVKQILKGEADAVKLEVQYMYEALMCGLLPAVQEYHNKDDFGPCKTPGSPYTDFGTLRAVALVKKSNKDINWNNIKGKKSCHTGVGDIAGWVIPVSLIRRQNDNSDIDSFFGESCAPGSDTKSNLCKLCIGDPKNSAANTKCSLSDKEAYYGNQGAFRCLVEKGDVAFVPHTVVFENTDGKNPAVWAKNLKSEDFELLCLDGSRAPVSNYKSCKLSGIPPPAIVTREESISDVVRIVANQQSLYGRKGFEKDMFQLFSSNKGNNLLFNDNTQCLITFDRQPKDIMEDYFGKPYYTTVYGASRSAMSSELISACTIKHC,18
2,F784Y: RcSxph mutant F784Y (protein) MAPTFQTALFFTIISLSFAAPNAKQVRWCAISDLEQKKCNDLVGSCNVPDITLVCVLRSSTEDCMTAIKDGQADAMFLDSGEVYEASKDPYNLKPIIAEPYSSNRDLQKCLKERQQALAKKMIGHYIPQCDEKGNYQPQQCHGSTGHCWCVNAMGEKISGTNTPPGQTRATCERHELPKCLKERQVALGGDEKVLGRFVPQCDEKGNYEPQQFHGSTGYSWCVNAIGEEIAGTKTPPGKIPATCQKHDLVTTCHYAVAMVKKSSAFQFNQLKGKRSCHSGVSKTDGWKALVTVLVEKKLLSWDGPAKESIQRAMSKFFSVSCIPGATQTNLCKQCKGEEGKNCKNSHDEPYYGNYGAFRCLKEDMGDVAFLRSTALSDEHSEVYELLCPDNTRKPLNKYKECNLGTVPAGTVVTRKISDKTEDINNFLMEAQKRQCKLFSSAHGKDLMFDDSTLQLALLSSEVDAFLYLGVKLFHAMKALTGDAHLPSKNKVRWCTINKLEKMKCDDWSAVSGGAIACTEASCPKGCVKQILKGEADAVKLEVQYMYEALMCGLLPAVEEYHNKDDFGPCKTPGSPYTDFGTLRAVALVKKSNKDINWNNIKGKKSCHTGVGDIAGWVIPVSLIRRQNDNSDIDSFFGESCAPGSDTKSNLCKLCIGDPKNSAANTKCSLSDKEAYYGNQGAFRCLVEKGDVAFVPHTVVFENTDGKNPAVWAKNLKSEDFELLCLDGSRAPVSNYKSCKLSGIPPPAIVTREESISDVVRIVANQQSLYGRKGFEKDMFQLFSSNKGNNLLFNDNTQCLITYDRQPKDIMEDYFGKPYYTTVYGASRSAMSSELISACTIKHC,1.55
3,F784L: RcSxph mutant F784L (protein) MAPTFQTALFFTIISLSFAAPNAKQVRWCAISDLEQKKCNDLVGSCNVPDITLVCVLRSSTEDCMTAIKDGQADAMFLDSGEVYEASKDPYNLKPIIAEPYSSNRDLQKCLKERQQALAKKMIGHYIPQCDEKGNYQPQQCHGSTGHCWCVNAMGEKISGTNTPPGQTRATCERHELPKCLKERQVALGGDEKVLGRFVPQCDEKGNYEPQQFHGSTGYSWCVNAIGEEIAGTKTPPGKIPATCQKHDLVTTCHYAVAMVKKSSAFQFNQLKGKRSCHSGVSKTDGWKALVTVLVEKKLLSWDGPAKESIQRAMSKFFSVSCIPGATQTNLCKQCKGEEGKNCKNSHDEPYYGNYGAFRCLKEDMGDVAFLRSTALSDEHSEVYELLCPDNTRKPLNKYKECNLGTVPAGTVVTRKISDKTEDINNFLMEAQKRQCKLFSSAHGKDLMFDDSTLQLALLSSEVDAFLYLGVKLFHAMKALTGDAHLPSKNKVRWCTINKLEKMKCDDWSAVSGGAIACTEASCPKGCVKQILKGEADAVKLEVQYMYEALMCGLLPAVEEYHNKDDFGPCKTPGSPYTDFGTLRAVALVKKSNKDINWNNIKGKKSCHTGVGDIAGWVIPVSLIRRQNDNSDIDSFFGESCAPGSDTKSNLCKLCIGDPKNSAANTKCSLSDKEAYYGNQGAFRCLVEKGDVAFVPHTVVFENTDGKNPAVWAKNLKSEDFELLCLDGSRAPVSNYKSCKLSGIPPPAIVTREESISDVVRIVANQQSLYGRKGFEKDMFQLFSSNKGNNLLFNDNTQCLITLDRQPKDIMEDYFGKPYYTTVYGASRSAMSSELISACTIKHC,4.64
4,D794N: RcSxph mutant D794N (protein) MAPTFQTALFFTIISLSFAAPNAKQVRWCAISDLEQKKCNDLVGSCNVPDITLVCVLRSSTEDCMTAIKDGQADAMFLDSGEVYEASKDPYNLKPIIAEPYSSNRDLQKCLKERQQALAKKMIGHYIPQCDEKGNYQPQQCHGSTGHCWCVNAMGEKISGTNTPPGQTRATCERHELPKCLKERQVALGGDEKVLGRFVPQCDEKGNYEPQQFHGSTGYSWCVNAIGEEIAGTKTPPGKIPATCQKHDLVTTCHYAVAMVKKSSAFQFNQLKGKRSCHSGVSKTDGWKALVTVLVEKKLLSWDGPAKESIQRAMSKFFSVSCIPGATQTNLCKQCKGEEGKNCKNSHDEPYYGNYGAFRCLKEDMGDVAFLRSTALSDEHSEVYELLCPDNTRKPLNKYKECNLGTVPAGTVVTRKISDKTEDINNFLMEAQKRQCKLFSSAHGKDLMFDDSTLQLALLSSEVDAFLYLGVKLFHAMKALTGDAHLPSKNKVRWCTINKLEKMKCDDWSAVSGGAIACTEASCPKGCVKQILKGEADAVKLEVQYMYEALMCGLLPAVEEYHNKDDFGPCKTPGSPYTDFGTLRAVALVKKSNKDINWNNIKGKKSCHTGVGDIAGWVIPVSLIRRQNDNSDIDSFFGESCAPGSDTKSNLCKLCIGDPKNSAANTKCSLSDKEAYYGNQGAFRCLVEKGDVAFVPHTVVFENTDGKNPAVWAKNLKSEDFELLCLDGSRAPVSNYKSCKLSGIPPPAIVTREESISDVVRIVANQQSLYGRKGFEKDMFQLFSSNKGNNLLFNDNTQCLITFDRQPKDIMENYFGKPYYTTVYGASRSAMSSELISACTIKHC,15.1
5,F784C: RcSxph mutant F784C (protein) MAPTFQTALFFTIISLSFAAPNAKQVRWCAISDLEQKKCNDLVGSCNVPDITLVCVLRSSTEDCMTAIKDGQADAMFLDSGEVYEASKDPYNLKPIIAEPYSSNRDLQKCLKERQQALAKKMIGHYIPQCDEKGNYQPQQCHGSTGHCWCVNAMGEKISGTNTPPGQTRATCERHELPKCLKERQVALGGDEKVLGRFVPQCDEKGNYEPQQFHGSTGYSWCVNAIGEEIAGTKTPPGKIPATCQKHDLVTTCHYAVAMVKKSSAFQFNQLKGKRSCHSGVSKTDGWKALVTVLVEKKLLSWDGPAKESIQRAMSKFFSVSCIPGATQTNLCKQCKGEEGKNCKNSHDEPYYGNYGAFRCLKEDMGDVAFLRSTALSDEHSEVYELLCPDNTRKPLNKYKECNLGTVPAGTVVTRKISDKTEDINNFLMEAQKRQCKLFSSAHGKDLMFDDSTLQLALLSSEVDAFLYLGVKLFHAMKALTGDAHLPSKNKVRWCTINKLEKMKCDDWSAVSGGAIACTEASCPKGCVKQILKGEADAVKLEVQYMYEALMCGLLPAVEEYHNKDDFGPCKTPGSPYTDFGTLRAVALVKKSNKDINWNNIKGKKSCHTGVGDIAGWVIPVSLIRRQNDNSDIDSFFGESCAPGSDTKSNLCKLCIGDPKNSAANTKCSLSDKEAYYGNQGAFRCLVEKGDVAFVPHTVVFENTDGKNPAVWAKNLKSEDFELLCLDGSRAPVSNYKSCKLSGIPPPAIVTREESISDVVRIVANQQSLYGRKGFEKDMFQLFSSNKGNNLLFNDNTQCLITCDRQPKDIMEDYFGKPYYTTVYGASRSAMSSELISACTIKHC,13.2
6,F784S: RcSxph mutant F784S (protein) MAPTFQTALFFTIISLSFAAPNAKQVRWCAISDLEQKKCNDLVGSCNVPDITLVCVLRSSTEDCMTAIKDGQADAMFLDSGEVYEASKDPYNLKPIIAEPYSSNRDLQKCLKERQQALAKKMIGHYIPQCDEKGNYQPQQCHGSTGHCWCVNAMGEKISGTNTPPGQTRATCERHELPKCLKERQVALGGDEKVLGRFVPQCDEKGNYEPQQFHGSTGYSWCVNAIGEEIAGTKTPPGKIPATCQKHDLVTTCHYAVAMVKKSSAFQFNQLKGKRSCHSGVSKTDGWKALVTVLVEKKLLSWDGPAKESIQRAMSKFFSVSCIPGATQTNLCKQCKGEEGKNCKNSHDEPYYGNYGAFRCLKEDMGDVAFLRSTALSDEHSEVYELLCPDNTRKPLNKYKECNLGTVPAGTVVTRKISDKTEDINNFLMEAQKRQCKLFSSAHGKDLMFDDSTLQLALLSSEVDAFLYLGVKLFHAMKALTGDAHLPSKNKVRWCTINKLEKMKCDDWSAVSGGAIACTEASCPKGCVKQILKGEADAVKLEVQYMYEALMCGLLPAVEEYHNKDDFGPCKTPGSPYTDFGTLRAVALVKKSNKDINWNNIKGKKSCHTGVGDIAGWVIPVSLIRRQNDNSDIDSFFGESCAPGSDTKSNLCKLCIGDPKNSAANTKCSLSDKEAYYGNQGAFRCLVEKGDVAFVPHTVVFENTDGKNPAVWAKNLKSEDFELLCLDGSRAPVSNYKSCKLSGIPPPAIVTREESISDVVRIVANQQSLYGRKGFEKDMFQLFSSNKGNNLLFNDNTQCLITSDRQPKDIMEDYFGKPYYTTVYGASRSAMSSELISACTIKHC,15.1
